# Test results reported in patent publication US20140100120, “METHODS OF X-APTAMER GENERATION AND COMPOSITIONS […]” (AM Biotechnologies, LLC, published 2014).
# Biological target: CD44 hyaluronic acid binding domain (CD44-HABD) (UniProt P16070 P16070:20-178)
# Assay: filter; 20 mM Tris pH 8.0, 150 mM NaCl, RT
# Conditions: label: biotin; hairpin (predicted)
# Experimental: The equilibrium binding constants of selected XAs for CD44-HABD were determined by a filter binding assay. The biotinylated XAs (1 nM) were incubated with varying concentrations of CD44-HABD in 50 μL of 20 mM Tris, pH 8.0, 150 mM NaCl for 40 min at room temperature and then transferred to a 96-well dot-blot apparatus and filtered under vacuum onto nitrocellulose membranes, which retain the CD44-HABD along with any bound XAs. The amount of biotinylated XA retained at each spot was determined by chemiluminescent detection using the Chemiluminescent Nucleic Acid Detection Module (Thermo Scientific) following the manufacturer's instructions. The chemiluminescent signals were collected on a Chemimager (Alpha Innotech). Image analysis and quantification of spot intensities were performed using ImageJ (version 1.42q). Binding analysis was based on the spot intensities on the nitrocellulose membranes with subtraction of background spot intensity due to the buffer effect from all the data points. Saturation binding curves were generated by using GraphPad Prism with curve fits assuming a single binding site. The NH₂ XA column lists KDs for XAs where X=amino-dU. The ADDA XA column lists KDs for XAs where X=ADDA-dU.
# The equilibrium binding constants of the small constructs were determined by the filter binding assay. The derived equilibrium binding constants of the above small XA constructs are shown below in Table 4.
# Chain of CD44 hyaluronic acid binding domain (CD44-HABD) (P16070 20-178, one chain of several): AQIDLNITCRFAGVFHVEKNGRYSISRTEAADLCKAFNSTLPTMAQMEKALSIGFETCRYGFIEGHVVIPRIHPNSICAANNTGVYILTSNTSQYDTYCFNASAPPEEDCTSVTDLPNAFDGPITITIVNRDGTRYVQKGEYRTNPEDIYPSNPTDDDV
row,Binder,Kd
1,"CTGTTAGGGAACCAAGACGA (ssDNA, fully monothioate PS; X=ADDA-dU [n positions 2,4 = modified dU]) [Motif 2 thio ADDA]",15.5 nM
2,"CTGTTAGGGAACCAAGACGA (ssDNA, X=ADDA-dU; phosphodiester [n positions 2,4 = modified dU]) [Motif 2 phospho ADDA]",2 nM
3,"CTGTTAGGGAACCAAGACGA (ssDNA, X=amino-dU; phosphodiester [n positions 2,4 = modified dU]) [Motif 2 phospho NH2]",43.1 nM
4,"CTGTTAGGGAACCAAGACGA (ssDNA, fully monothioate PS; X=amino-dU [n positions 2,4 = modified dU]) [Motif 2 thio NH2]",48 nM

# Same assay, conditions: label: biotin; stem-loop (predicted)
row,Binder,Kd
1,"GCCTGCAAGACGTCCATAGACAC (ssDNA, fully monothioate PS; X=amino-dU [n positions 13 = modified dU]) [Motif 3 thio NH2]",81.2 nM
2,"AGATACAGTAAACGTCCATAGACAC (ssDNA, fully monothioate PS; X=ADDA-dU [n positions 4,15 = modified dU]) [Motif 5 thio ADDA]",10.1 nM
3,"GCCTGCAAGACGTCCATAGACAC (ssDNA, X=ADDA-dU; phosphodiester [n positions 13 = modified dU]) [Motif 3 phospho ADDA]",19.5 nM
4,"GCCTGCAAGACGTCCATAGACAC (ssDNA, X=amino-dU; phosphodiester [n positions 13 = modified dU]) [Motif 3 phospho NH2]",27.6 nM
5,"GATCTGCAATGTAACCATAGACA (ssDNA, X=amino-dU; phosphodiester [n positions 10 = modified dU]) [Motif 4 phospho NH2]",6.8 nM
6,"GATCTGCAATGTAACCATAGACA (ssDNA, X=ADDA-dU; phosphodiester [n positions 10 = modified dU]) [Motif 4 phospho ADDA]",2.1 nM
7,"AGATACAGTAAACGTCCATAGACAC (ssDNA, fully monothioate PS; X=amino-dU [n positions 4,15 = modified dU]) [Motif 5 thio NH2]",18 nM
8,"GATCTGCAATGTAACCATAGACA (ssDNA, fully monothioate PS; X=amino-dU [n positions 10 = modified dU]) [Motif 4 thio NH2]",35.4 nM
9,"GCCTGCAAGACGTCCATAGACAC (ssDNA, fully monothioate PS; X=ADDA-dU [n positions 13 = modified dU]) [Motif 3 thio ADDA]",64.8 nM
10,"AGATACAGTAAACGTCCATAGACAC (ssDNA, X=ADDA-dU; phosphodiester [n positions 4,15 = modified dU]) [Motif 5 phospho ADDA]",3.9 nM
11,"GATCTGCAATGTAACCATAGACA (ssDNA, fully monothioate PS; X=ADDA-dU [n positions 10 = modified dU]) [Motif 4 thio ADDA]",13.6 nM
12,"AGATACAGTAAACGTCCATAGACAC (ssDNA, X=amino-dU; phosphodiester [n positions 4,15 = modified dU]) [Motif 5 phospho NH2]",13.8 nM
